Where no end group is shown, it is not given here.
Molecular target: αvβ3 integrin expressed on blood vessels forming in the tumor
Assay: cell-based or functional assay

B1: phage expressing the RGD-containing peptide CDCRGDCFC (SEQ ID NO: 1) (peptide)
chain: CDCRGDCFC
modifications: not fully specified (bridges); cysteine pairing not given here; also: peptide displayed on filamentous phage (fuse5), up to five copies
  phage concentrated in the breast tumor after iv injection (in vivo homing), RGD phage against unselected phage: 80 fold
